Publication PMC10286367

What was measured:
WB, cultured astrocytes = details: glycan lost; control: Ctrl astrocytes
[1] = WB of total p65, cultured astrocytes; details: glycan lost; control: Ctrl astrocytes
[2] = WB of cytoplasmic and nuclear fractions; details: glycan lost; control: Ctrl astrocytes
IP-WB in N2a cells = details: glycan lost; control: wild-type p65-HA

B1: NF-κB p65: Ogt cKO (protein)
parent chain: MDDLFPLIFPSEPAQASGPYVEIIEQPKQRGMRFRYKCEGRSAGSIPGERSTDTTKTHPTIKINGYTGPGTVRISLVTKDPPHRPHPHELVGKDCRDGYYEADLCPDRSIHSFQNLGIQCVKKRDLEQAISQRIQTNNNPFHVPIEEQRGDYDLNAVRLCFQVTVRDPAGRPLLLTPVLSHPIFDNRAPNTAELKICRVNRNSGSCLGGDEIFLLCDKVQKEDIEVYFTGPGWEARGSFSQADVHRQVAIVFRTPPYADPSLQAPVRVSMQLRRPSDRELSEPMEFQYLPDTDDRHRIEEKRKRTYETFKSIMKKSPFNGPTEPRPPTRRIAVPTRNSTSVPKPAPQPYTFPASLSTINFDEFSPMLLPSGQISNQALALAPSSAPVLAQTMVPSSAMVPLAQPPAPAPVLTPGPPQSLSAPVPKSTQAGEGTLSEALLHLQFDADEDLGALLGNSTDPGVFTDLASVDNSEFQQLLNQGVSMSHSTAEPMLMEYPEAITRLVTGSQRPPDPAPTPLGTSGLPNGLSGDEDFSSIADMDFSALLSQISS
WB, cultured astrocytes
  other: p65 phosphorylation (p-p65 level): increases
[1]
  expression_or_secretion: no change
[2]
  localisation_or_trafficking: changes

B2: NF-κB p65: OE-Ogt (protein)
parent chain: MDDLFPLIFPSEPAQASGPYVEIIEQPKQRGMRFRYKCEGRSAGSIPGERSTDTTKTHPTIKINGYTGPGTVRISLVTKDPPHRPHPHELVGKDCRDGYYEADLCPDRSIHSFQNLGIQCVKKRDLEQAISQRIQTNNNPFHVPIEEQRGDYDLNAVRLCFQVTVRDPAGRPLLLTPVLSHPIFDNRAPNTAELKICRVNRNSGSCLGGDEIFLLCDKVQKEDIEVYFTGPGWEARGSFSQADVHRQVAIVFRTPPYADPSLQAPVRVSMQLRRPSDRELSEPMEFQYLPDTDDRHRIEEKRKRTYETFKSIMKKSPFNGPTEPRPPTRRIAVPTRNSTSVPKPAPQPYTFPASLSTINFDEFSPMLLPSGQISNQALALAPSSAPVLAQTMVPSSAMVPLAQPPAPAPVLTPGPPQSLSAPVPKSTQAGEGTLSEALLHLQFDADEDLGALLGNSTDPGVFTDLASVDNSEFQQLLNQGVSMSHSTAEPMLMEYPEAITRLVTGSQRPPDPAPTPLGTSGLPNGLSGDEDFSSIADMDFSALLSQISS
HA IP-WB in N2a cells; glycan gained, control: N2a cells without ectopic Ogt
  other: p65 phosphorylation (p-p65 level): decreases

B3: NF-κB p65: S374A (protein)
parent chain: MDDLFPLIFPSEPAQASGPYVEIIEQPKQRGMRFRYKCEGRSAGSIPGERSTDTTKTHPTIKINGYTGPGTVRISLVTKDPPHRPHPHELVGKDCRDGYYEADLCPDRSIHSFQNLGIQCVKKRDLEQAISQRIQTNNNPFHVPIEEQRGDYDLNAVRLCFQVTVRDPAGRPLLLTPVLSHPIFDNRAPNTAELKICRVNRNSGSCLGGDEIFLLCDKVQKEDIEVYFTGPGWEARGSFSQADVHRQVAIVFRTPPYADPSLQAPVRVSMQLRRPSDRELSEPMEFQYLPDTDDRHRIEEKRKRTYETFKSIMKKSPFNGPTEPRPPTRRIAVPTRNSTSVPKPAPQPYTFPASLSTINFDEFSPMLLPSGQISNQALALAPSSAPVLAQTMVPSSAMVPLAQPPAPAPVLTPGPPQSLSAPVPKSTQAGEGTLSEALLHLQFDADEDLGALLGNSTDPGVFTDLASVDNSEFQQLLNQGVSMSHSTAEPMLMEYPEAITRLVTGSQRPPDPAPTPLGTSGLPNGLSGDEDFSSIADMDFSALLSQISS
IP-WB in N2a cells
  other: p65 phosphorylation (p-p65 level): no change

B4: NF-κB p65: S370A (protein)
parent chain: MDDLFPLIFPSEPAQASGPYVEIIEQPKQRGMRFRYKCEGRSAGSIPGERSTDTTKTHPTIKINGYTGPGTVRISLVTKDPPHRPHPHELVGKDCRDGYYEADLCPDRSIHSFQNLGIQCVKKRDLEQAISQRIQTNNNPFHVPIEEQRGDYDLNAVRLCFQVTVRDPAGRPLLLTPVLSHPIFDNRAPNTAELKICRVNRNSGSCLGGDEIFLLCDKVQKEDIEVYFTGPGWEARGSFSQADVHRQVAIVFRTPPYADPSLQAPVRVSMQLRRPSDRELSEPMEFQYLPDTDDRHRIEEKRKRTYETFKSIMKKSPFNGPTEPRPPTRRIAVPTRNSTSVPKPAPQPYTFPASLSTINFDEFSPMLLPSGQISNQALALAPSSAPVLAQTMVPSSAMVPLAQPPAPAPVLTPGPPQSLSAPVPKSTQAGEGTLSEALLHLQFDADEDLGALLGNSTDPGVFTDLASVDNSEFQQLLNQGVSMSHSTAEPMLMEYPEAITRLVTGSQRPPDPAPTPLGTSGLPNGLSGDEDFSSIADMDFSALLSQISS
IP-WB in N2a cells
  other: p65 phosphorylation (p-p65 level): no change

B5: NF-κB p65: S396A (protein)
parent chain: MDDLFPLIFPSEPAQASGPYVEIIEQPKQRGMRFRYKCEGRSAGSIPGERSTDTTKTHPTIKINGYTGPGTVRISLVTKDPPHRPHPHELVGKDCRDGYYEADLCPDRSIHSFQNLGIQCVKKRDLEQAISQRIQTNNNPFHVPIEEQRGDYDLNAVRLCFQVTVRDPAGRPLLLTPVLSHPIFDNRAPNTAELKICRVNRNSGSCLGGDEIFLLCDKVQKEDIEVYFTGPGWEARGSFSQADVHRQVAIVFRTPPYADPSLQAPVRVSMQLRRPSDRELSEPMEFQYLPDTDDRHRIEEKRKRTYETFKSIMKKSPFNGPTEPRPPTRRIAVPTRNSTSVPKPAPQPYTFPASLSTINFDEFSPMLLPSGQISNQALALAPSSAPVLAQTMVPSSAMVPLAQPPAPAPVLTPGPPQSLSAPVPKSTQAGEGTLSEALLHLQFDADEDLGALLGNSTDPGVFTDLASVDNSEFQQLLNQGVSMSHSTAEPMLMEYPEAITRLVTGSQRPPDPAPTPLGTSGLPNGLSGDEDFSSIADMDFSALLSQISS
IP-WB in N2a cells
  other: p65 phosphorylation (p-p65 level): no change

B6: NF-κB p65: S384A (protein)
parent chain: MDDLFPLIFPSEPAQASGPYVEIIEQPKQRGMRFRYKCEGRSAGSIPGERSTDTTKTHPTIKINGYTGPGTVRISLVTKDPPHRPHPHELVGKDCRDGYYEADLCPDRSIHSFQNLGIQCVKKRDLEQAISQRIQTNNNPFHVPIEEQRGDYDLNAVRLCFQVTVRDPAGRPLLLTPVLSHPIFDNRAPNTAELKICRVNRNSGSCLGGDEIFLLCDKVQKEDIEVYFTGPGWEARGSFSQADVHRQVAIVFRTPPYADPSLQAPVRVSMQLRRPSDRELSEPMEFQYLPDTDDRHRIEEKRKRTYETFKSIMKKSPFNGPTEPRPPTRRIAVPTRNSTSVPKPAPQPYTFPASLSTINFDEFSPMLLPSGQISNQALALAPSSAPVLAQTMVPSSAMVPLAQPPAPAPVLTPGPPQSLSAPVPKSTQAGEGTLSEALLHLQFDADEDLGALLGNSTDPGVFTDLASVDNSEFQQLLNQGVSMSHSTAEPMLMEYPEAITRLVTGSQRPPDPAPTPLGTSGLPNGLSGDEDFSSIADMDFSALLSQISS
IP-WB in N2a cells
  other: p65 phosphorylation (p-p65 level): increases

B7: NF-κB p65: Ogt KD (protein)
parent chain: MDDLFPLIFPSEPAQASGPYVEIIEQPKQRGMRFRYKCEGRSAGSIPGERSTDTTKTHPTIKINGYTGPGTVRISLVTKDPPHRPHPHELVGKDCRDGYYEADLCPDRSIHSFQNLGIQCVKKRDLEQAISQRIQTNNNPFHVPIEEQRGDYDLNAVRLCFQVTVRDPAGRPLLLTPVLSHPIFDNRAPNTAELKICRVNRNSGSCLGGDEIFLLCDKVQKEDIEVYFTGPGWEARGSFSQADVHRQVAIVFRTPPYADPSLQAPVRVSMQLRRPSDRELSEPMEFQYLPDTDDRHRIEEKRKRTYETFKSIMKKSPFNGPTEPRPPTRRIAVPTRNSTSVPKPAPQPYTFPASLSTINFDEFSPMLLPSGQISNQALALAPSSAPVLAQTMVPSSAMVPLAQPPAPAPVLTPGPPQSLSAPVPKSTQAGEGTLSEALLHLQFDADEDLGALLGNSTDPGVFTDLASVDNSEFQQLLNQGVSMSHSTAEPMLMEYPEAITRLVTGSQRPPDPAPTPLGTSGLPNGLSGDEDFSSIADMDFSALLSQISS
HA IP-WB in N2a cells; glycan lost, control: control N2a cells
  other: p65 phosphorylation (p-p65 level): increases
